Experimental data as given in PMC3192995.

Tests used:
Experiment in all cases: two-hybrid
[1] = biological target: PwHAP5 C130, residues 92-221, fused in pGBKT7 (yeast two-hybrid bait) (Picea wilsonii)
[2] = biological target: PwHAP5 N77, residues 1-77, fused in pGBKT7 (yeast two-hybrid bait) (Picea wilsonii)
[3] = biological target: PwHAP5, full-length coding region, fused in pGBKT7 (yeast two-hybrid bait) (Picea wilsonii)

Measured: fold beta-galactosidase activity over the controls

PwFKBP12 in pGADT7-Rec (yeast two-hybrid prey) (natural protein)
20 fold: all assays above
